From the supplement of paper PMC5998384 come the findings set out here.

Data set [1] deals with HeLa Kyoto. Description: solubility change mitosis vs G1/S (difference of NP-40 vs SDS log2 ratios) (log2 ratio difference); higher = more soluble in mitosis.
Data set [2] relates to HeLa Kyoto. Description: melting temperature (median over replicates), in situ; higher = more thermally stable.
Data set [3] concerns HeLa Kyoto. As to the kind of experiment: thermal stability score vs G1/S (z-score of summed log2 fold changes over temperatures); higher = more thermally stable than in G1/S.
Setting [4] is: cell cycle stage: early G1 (4.5 h after nocodazole release).
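For melting temperature (median over replicates), in situ in this document: HeLa Kyoto cells synchronized by double thymidine or nocodazole block, proteins quantified by TMT10plex mass spectrometry, three independent biological replicates.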
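For solubility change mitosis vs G1/S (difference of NP-40 vs SDS log2 ratios) in this document: synchronized HeLa Kyoto cells (double thymidine block for G1/S, nocodazole release for mitosis), protein amounts in NP-40 versus SDS lysates quantified by mass spectrometry, three biological replicates.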
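For thermal stability score vs G1/S (z-score of summed log2 fold changes over temperatures) in this document: synchronized HeLa Kyoto cells, proteins quantified by TMT10plex mass spectrometry, three biological replicates, mitosis taken 0.5 h after nocodazole release, G1/S directly after double thymidine block.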

LDHAL6A, sequence (chain, as listed by the source): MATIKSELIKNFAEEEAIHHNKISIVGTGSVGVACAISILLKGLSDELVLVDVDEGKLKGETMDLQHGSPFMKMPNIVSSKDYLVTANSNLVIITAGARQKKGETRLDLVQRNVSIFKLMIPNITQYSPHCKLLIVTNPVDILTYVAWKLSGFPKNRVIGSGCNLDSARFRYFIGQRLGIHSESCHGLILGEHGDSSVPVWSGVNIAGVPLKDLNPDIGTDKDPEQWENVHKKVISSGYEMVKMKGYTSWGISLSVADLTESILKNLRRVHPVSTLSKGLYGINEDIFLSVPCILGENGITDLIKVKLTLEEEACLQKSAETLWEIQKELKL

As to RPS26, in data set [1], the “solubility change mitosis (log2)” value was found to be 0.618.

With SMU1, the “solubility change mitosis (log2)” value in data set [1] came to 0.423. On to WDR12, for which the “solubility change mitosis (log2)” value in data set [1] is 0.45. “MADVINVSVNLEAFSQAISAIQALRSSVSRVFDCLKDGMRNKETLEGREKAFIAHFQDNLHSVNRDLNELERLSNLVGKPSENHPLHNSGLLSLDPVQDKTPLYSQLLQAYKWSNKLQYHAGLASGLLNQQSLKRSANQMGVSAKRRPKAQPTTLVLPPQYVDDVISRIDRMFPEMSIHLSRPNGTSAMLLVTLGKVLKVIVVMRSLFIDRTIVKGYNENVYTEDGKLDIWSKSNYQVFQKVTDHATTALLHYQLPQMPDVVVRSFMTWLRSYIKLFQAPCQRCGKFLQDGLPPTWRDFRTLEAFHDTCRQ [MED27]” showed a melting temperature in data set [2] (cell cycle stage: G1/S) of 48.5 °C. The figures for the thermal stability score in data set [3] (setting [4]) and in data set [3] (cell cycle stage: mitosis) were -0.132 and 0.247, respectively. Turning to PAF1, the “solubility change mitosis (log2)” value in data set [1] is -0.0983.

In the case of RPL17, the “solubility change mitosis (log2)” value in data set [1] was found to be 0.699.

RPS25: the “solubility change mitosis (log2)” value in data set [1] turned out to be 0.71. For RNF167, the “solubility change mitosis (log2)” value in data set [1] is -0.0145.

Consider ITPA, for which the “solubility change mitosis (log2)” value in data set [1] turned out to be 0.0757. On to RPL7L1, for which the “solubility change mitosis (log2)” value in data set [1] amounted to 1.18. Turning to “MRLVILDNYDLASEWAAKYICNRIIQFKPGQDRYFTLGLPTGSTPLGCYKKLIEYHKNGHLSFKYVKTFNMDEYVGLPRNHPESYHSYMWNNFFKHIDIDPNNAHILDGNAADLQAECDAFENKIKEAGGIDLFVGGIGPDGHIAFNEPGSSLVSRTRLKTLAMDTILANAKYFDGDLSKVPTMALTVGVGTVMDAREVMILITGAHKAFALYKAIEEGVNHMWTVSAFQQHPRTIFVCDEDATLELRVKTVKYFKGLMHVHNKLVDPLFSMKDGN [GNPDA2]”, the melting temperature in data set [2] (cell cycle stage: G1/S) was found to be 58.1 °C; in data set [2] (cell cycle stage: mitosis) it was 58.3 °C. Further, the thermal stability score in data set [3] (setting [4]) is -0.549; in data set [3] (cell cycle stage: mitosis) it was -0.194.

SUPT5H: the “solubility change mitosis (log2)” value in data set [1] was -0.0755. In the case of MRPL44, the “solubility change mitosis (log2)” value in data set [1] is -0.0742. Regarding CLIC1, in data set [1], the “solubility change mitosis (log2)” value came to 0.0655. With PEX5, the “solubility change mitosis (log2)” value in data set [1] is -0.137. On the same count and under the same terms, the result for RPL37A reads 0.616; that for IWS1, 0.062. With LDHAL6A, the melting temperature in data set [2] (cell cycle stage: G1/S) was 61.6 °C. In addition, the figures for the thermal stability score in data set [3] (setting [4]) and in data set [3] (cell cycle stage: mitosis) were -1.33 and -1.23, respectively.

As for UNC119, the “solubility change mitosis (log2)” value in data set [1] was -0.0626. Turning to PPP2R5C, the “solubility change mitosis (log2)” value in data set [1] is -0.158. Regarding PRG4, in data set [1], the “solubility change mitosis (log2)” value amounted to 0.251. HAGH: in data set [1], the “solubility change mitosis (log2)” value came out at 0.0733.

Regarding MRPS18A, in data set [1], the “solubility change mitosis (log2)” value was determined as 0.0389. As for RPL8, the “solubility change mitosis (log2)” value in data set [1] came out at 0.63. Turning to “MASASSGPSSSVGFSSFDPAVPSCTLSSAASGIKRPMASEVLEARQDSYISLVPYASGMPIKKIGHRSVDSSGETTYKKTTSSALKGAIQLGITHTVGSLSTKPERDVLMQDFYVVESIFFPSEGSNLTPAHHYNDFRFKTYAPVAFRYFRELFGIRPDDYLYSLCSEPLIELCSSGASGSLFYVSSDDEFIIKTVQHKEAEFLQKLLPGYYMNLNQNPRTLLPKFYGLYCVQAGGKNIRIVVMNNLLPRSVKMHIKYDLKGSTYKRRASQKEREKPLPTFKDLDFLQDIPDGLFLDADMYNALCKTLQRDCLVLQSFKIMDYSLLMSIHNIDHAQREPLSSETQYSVDTRRPAPQKALYSTAMESIQGEARRGGTMETDDHMGGIPARNSKGERLLLYIGIIDILQSYRFVKKLEHSWKALVHDGDTVSVHRPGFYAERFQRFMCNTVFKKIPLKPSPSKKFRSGSSFSRRAGSSGNSCITYQPSVSGEHKAQVTTKAEVEPGVHLGRPDVLPQTPPLEEISEGSPIPDPSFSPLVGETLQMLTTSTTLEKLEVAESEFTH [PIP5K1A]”, the figures for the melting temperature in data set [2] (cell cycle stage: G1/S) and in data set [2] (cell cycle stage: mitosis) were 51.4 °C and 51.5 °C, respectively. For the same substance, the thermal stability score was found to be 1.38 in data set [3] (setting [4]) and 1.13 in data set [3] (cell cycle stage: mitosis). Regarding KDM1A, the “solubility change mitosis (log2)” value in data set [1] is -0.0676.

For RPL28, in data set [1], the “solubility change mitosis (log2)” value is 0.852. With “MAACRALKAVLVDLSGTLHIEDAAVPGAQEALKRLRGASVIIRFVTNTTKESKQDLLERLRKLEFDISEDEIFTSLTAARSLLERKQVRPMLLVDDRALPDFKGIQTSDPNAVVMGLAPEHFHYQILNQAFRLLLDGAPLIAIHKARYYKRKDGLALGPGPFVTALEYATDTKATVVGKPEKTFFLEALRGTGCEPEEAVMIGDDCRDDVGGAQDVGMLGILVKTGKYRASDEEKINPPPYLTCESFPHAVDHILQHLL [HDHD2]”, the melting temperature is 57.3 °C in data set [2] (cell cycle stage: G1/S) and 59 °C in data set [2] (cell cycle stage: mitosis). The thermal stability score in data set [3] (setting [4]) was -2.07; in data set [3] (cell cycle stage: mitosis), -2.57.

For “MREIVHIQAGQCGNQIGAKFWEVISDEHGIDPSGNYVGDSDLQLERISVYYNEASSHKYVPRAILVDLEPGTMDSVRSGAFGHLFRPDNFIFGQSGAGNNWAKGHYTEGAELVDSVLDVVRKECENCDCLQGFQLTHSLGGGTGSGMGTLLISKVREEYPDRIMNTFSVVPSPKVSDTVVEPYNATLSIHQLVENTDETYCIDNEALYDICFRTLKLATPTYGDLNHLVSATMSGVTTSLRFPGQLNADLRKLAVNMVPFPRLHFFMPGFAPLTARGSQQYRALTVPELTQQMFDAKNMMAACDPRHGRYLTVATVFRGRMSMKEVDEQMLAIQSKNSSYFVEWIPNNVKVAVCDIPPRGLKMSSTFIGNSTAIQELFKRISEQFTAMFRRKAFLHWYTGEGMDEMEFTEAESNMNDLVSEYQQYQDATAEEEGEMYEDDEEESEAQGPK [TUBB3]”, the melting temperature in data set [2] (cell cycle stage: G1/S) amounted to 52.3 °C; in data set [2] (cell cycle stage: mitosis) it was 54.3 °C. For the same substance, the thermal stability score in data set [3] (setting [4]) was -0.669; in data set [3] (cell cycle stage: mitosis), 0.329. “MATKEKLQCLKDFHKDILKPSPGKSPGTRPEDEAEGKPPQREKWSSKIDFVLSVAGGFVGLGNVWRFPYLCYKNGGGAFLIPYFIFLFGSGLPVFFLEIIIGQYTSEGGITCWEKICPLFSGIGYASVVIVSLLNVYYIVILAWATYYLFQSFQKELPWAHCNHSWNTPHCMEDTMRKNKSVWITISSTNFTSPVIEFWERNVLSLSPGIDHPGSLKWDLALCLLLVWLVCFFCIWKGVRSTGKVVYFTATFPFAMLLVLLVRGLTLPGAGAGIKFYLYPDITRLEDPQVWIDAGTQIFFSYAICLGAMTSLGSYNKYKYNSYRDCMLLGCLNSGTSFVSGFAIFSILGFMAQEQGVDIADVAESGPGLAFIAYPKAVTMMPLPTFWSILFFIMLLLLGLDSQFVEVEGQITSLVDLYPSFLRKGYRREIFIAFVCSISYLLGLTMVTEGGMYVFQLFDYYAASGVCLLWVAFFECFVIAWIYGGDNLYDGIEDMIGYRPGPWMKYSWAVITPVLCVGCFIFSLVKYVPLTYNKTYVYPNWAIGLGWSLALSSMLCVPLVIVIRLCQTEGPFLVRVKYLLTPREPNRWAVEREGATPYNSRTVMNGALVKPTHIIVETMM [SLC6A6]”: the melting temperature in data set [2] (cell cycle stage: G1/S) came to 57.6 °C; in data set [2] (cell cycle stage: mitosis) it was 57.2 °C. Also, the values for the thermal stability score in data set [3] (setting [4]) and in data set [3] (cell cycle stage: mitosis) were -2.77 and -2.51, respectively. For “MEAAVAPGRDAPAPAASQPSGCGKHNSPERKVYMDYNATTPLEPEVIQAMTKAMWEAWGNPSSPYSAGRKAKDIINAARESLAKMIGGKPQDIIFTSGGTESNNLVIHSVVKHFHANQTSKGHTGGHHSPVKGAKPHFITSSVEHDSIRLPLEHLVEEQVAAVTFVPVSKVSGQAEVDDILAAVRPTTRLVTIMLANNETGIVMPVPEISQRIKALNQERVAAGLPPILVHTDAAQALGKQRVDVEDLGVDFLTIVGHKFYGPRIGALYIRGLGEFTPLYPMLFGGGQERNFRPGTENTPMIAGLGKAAELVTQNCEAYEAHMRDVRDYLEERLEAEFGQKRIHLNSQFPGTQRLPNTCNFSIRGPRLQGHVVLAQCRVLMASVGAACHSDHGDQPSPVLLSYGVPFDVARNALRLSVGRSTTRAEVDLVVQDLKQAVAQLEDQA [SCLY]” the same measures were 55.4 °C, 51.5 °C, -0.479 and -0.778.
